What was measured:
[1] = target: rPTBP1;rMATR3 PRI-RRMs (human?;human?, UniProt P26599;P43243 1-557;341-592, |); assay: UV crosslinking; PTBP1 crosslinking retained at excess rMATR3; heteromeric complex; 30 C 20 min, 10 fmol RNA, UV crosslink on ice (1920 mJ), RNase A1/T1 digestion, 15% denaturing PAGE; buffer, salt and pH not stated; conditions: protein: recombinant;recombinant; (HisTrap purified); copies: 1;1; label: 32P-UTP
[2] = target: T1, rMATR3 RRMs (UniProt P43243 362-592); assay: UV crosslinking competition; competes with 0.5 uM rPTBP1 at equimolar concentration; 30 C 20 min, 10 fmol RNA, UV crosslink on ice (1920 mJ), RNase A1/T1 digestion, 15% denaturing PAGE; buffer, salt and pH not stated; conditions: protein: recombinant; (HisTrap purified); label: 32P-UTP
T1 sequence: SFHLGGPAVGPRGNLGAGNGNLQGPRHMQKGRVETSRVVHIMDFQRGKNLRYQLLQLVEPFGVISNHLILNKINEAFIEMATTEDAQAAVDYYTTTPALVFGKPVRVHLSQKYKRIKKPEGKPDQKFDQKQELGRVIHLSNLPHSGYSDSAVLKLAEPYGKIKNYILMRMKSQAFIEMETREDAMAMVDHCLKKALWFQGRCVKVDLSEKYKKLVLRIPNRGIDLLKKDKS

rPTBP1;rMATR3 PRI-RRMs, sequence (P26599 whole entry, one chain of several): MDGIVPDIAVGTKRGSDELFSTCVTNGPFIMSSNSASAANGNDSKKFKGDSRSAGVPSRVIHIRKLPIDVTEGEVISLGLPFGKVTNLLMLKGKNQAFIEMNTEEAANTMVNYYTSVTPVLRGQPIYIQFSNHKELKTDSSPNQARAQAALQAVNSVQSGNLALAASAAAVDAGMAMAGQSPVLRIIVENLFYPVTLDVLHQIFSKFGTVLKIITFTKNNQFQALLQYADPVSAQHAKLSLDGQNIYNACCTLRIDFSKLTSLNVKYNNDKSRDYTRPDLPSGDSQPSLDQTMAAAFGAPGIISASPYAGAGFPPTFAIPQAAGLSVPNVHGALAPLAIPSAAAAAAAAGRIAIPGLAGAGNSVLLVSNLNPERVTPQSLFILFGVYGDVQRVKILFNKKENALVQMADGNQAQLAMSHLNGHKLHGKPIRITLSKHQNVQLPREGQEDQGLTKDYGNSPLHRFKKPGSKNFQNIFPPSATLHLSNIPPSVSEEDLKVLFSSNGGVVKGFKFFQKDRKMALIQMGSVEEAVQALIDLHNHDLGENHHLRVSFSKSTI

B1: ATCTT2 RNA probe (ssRNA)
RNA: GAAUACGAAUUCCAUAUAUGAUCGAUAAAUAUAUGGUACCUUGCUAUCUUACAUCUUUUUACGGAUCCCAUAUAUGAUCGAUAUAUAUAAGCU
binding result [1]: binds | binding result [2]: binds

From article PMC6108849, “Heteromeric RNP Assembly at LINEs Controls Lineage-Specific RNA Processing”
